Positions count from the first letter of the chain named.
B1: Tyr: mutant aspartokinase 279 Ala→Tyr, plasmid p399AKAY (p399AKAYB) (protein, UniProt P26512 1-421, looked up, variant A279Y)
Aspartokinase: MALVVQKYGGSSLESAERIRNVAERIVATKKAGNDVVVVCSAMGDTTDELLELAAAVNPVPPAREMDMLLTAGERISNALVAMAIESLGAEAQSFTGSQAGVLTTERHGNARIVDVTPGRVREALDEGKICIVAGFQGVNKETRDVTTLGRGGSDTTAVALAAALNADVCEIYSDVDGVYTADPRIVPNAQKLEKLSFEEMLELAAVGSKILVLRSVEYARAFNVPLRVRSSYSNDPGTLIAGSMEDIPVEEAVLTGVATDKSEAKVTVLGISDKPGEYAKVFRALADAEINIDMVLQNVSSVEDGTTDITFTCPRSDGRRAMEILKKLQVQGNWTNVLYDDQVGKVSLVGAGMKSHPGVTAEFMEALRDVNVNIELISTSEIRISVLIREDDLDAAARALHEQFQLGGEDEAVVYAGTGR
B2: Phe: mutant aspartokinase 279 Ala→Phe, plasmid p399AKAF (p399AKAFB) (protein, UniProt P26512 1-421, looked up, variant A279F)
Aspartokinase: B1 Aspartokinase with Y279F

Key:
aspartokinase = assay: Aspartokinase (AK) activity of cell-disrupted solutions of Corynebacterium glutamicum strains, with and without L-lysine/L-threonine; assay type: biochemical, Corynebacterium glutamicum (Brevibacterium lactofermentum); conditions: plasmids introduced into AJ12036; for 2 mM Lys + Thr (desensitization degree of inhibition): 2 mM lysine + threonine; for 5 mM Lys (desensitization degree of inhibition): lysine 5 mM; for Specific activity: Table 5; for 5 mM Thr (desensitization degree of inhibition): threonine 5 mM
From the text: When a wild type strain is used as a donor for the DNA fragment containing the AK gene, a DNA fragment containing a wild type AK gene can be obtained. The DNA fragment containing the gene for AK in which synergistic feedback inhibition by L-lysine and L-threonine is substantially desensitized can be obtained by using a mutant strain in which synergistic feedback inhibition on the AK activity by L-lysine and L-threonine is substantially desensitized. The mutant strain can be obtained, for example, from a group of cells subjected to an ordinary mutation treatment, ultraviolet light irradiation, or a treatment with a mutating agent such as N-methyl-N'-nitro-N-nitrosoguanidine (NTG). The AK activity can be measured by using a method described in Miyajima, R. et al., The Journal of Biochemistry (1968), 63(2), 139-148.
Strains were prepared by introducing the wild type AK plasmid p399AKYB and the mutant AK plasmid p399AK9B respectively into AJ12036 strain (FERM P-7559) as a wild type strain of Corynebacterium glutamicum (Brevibacterium lactofermentum). The genes were introduced into Corynebacterium by means of an electric pulse method. The aspartokinase activity was measured for Corynebacterium glutamicum (Brevibacterium lactofermentum) AJ12036 strain as a host, AJ12690 strain harboring the wild type AK plasmid, and AJ12691 (FERM P12918) strain harboring the mutant AK plasmid. The activity was measured in accordance with an ordinary method (see Miyajima, R. et al., The Journal of Biochemistry (1968) 63(2), 139-148). […]
Strains were prepared by introducing 8 kinds of the plasmids shown in Table 3 into AJ12036 strain (FERM P-7559) as a wild type strain of Corynebacterium glutamicum (Brevibacterium lactofermentum) in the same manner as Example 3. The AK activity was measured for each of the strains. […] The desensitization degree of inhibition by lysine and/or threonine was similar to those in Example 6.

[1] = system: Corynebacterium glutamicum (Brevibacterium lactofermentum) AJ12036; assay: L-lysine productivity evaluated by cultivation in production medium; assay type: cell-based; conditions: plasmids introduced into AJ12036; cultivation as in Example 3
Procedure: The lysine productivity was evaluated by cultivation for the wild type strain AJ12036, the wild type AK plasmid-harboring strain AJ12690, and the mutant AK plasmid-harboring strain AJ12691 (FERM P-12918). The evaluation by cultivation was performed by inoculating the strains to a production medium (containing glucose 100 g, (NH4)2 SO4 55 g, KH2 PO4 1 g, MgSO4.7H2 O 1 g, soybean protein acid hydrolysate "Mamenou" (product of Ajinomoto Co., Ltd., trade name) 50 ml, FeSO4.7H2 O 10 mg, MnSO4.4H2 O 10 mg, nicotinic acid amide 5 mg, and CaCO3 50 g in 1 l of pure water, pH 8.0), and cultivating them with reciprocatory shaking at 31.5° C. for 72 hours. […] The plasmid-holding ratio upon completion of the cultivation was measured by using an index of chloramphenicol resistance as a drug resistance marker of the plasmid.
The lysine productivity was further evaluated by cultivation for the 9 kinds of these strains by using a method similar to that in Example 3.

AK [2] = assay: Thermal stability of AK, treatment at 55° C. for 1.5 hour; assay type: biochemical, Corynebacterium glutamicum; conditions: FIG. 6
Procedure: The activity-holding ratio after a treatment at 55° C. for 90 minutes is indicated by %.
Thermal stability was investigated as an index of stability of the enzyme structure constructed by the introduction of mutation. The treatment condition was set at 55° C. for 1.5 hour in which the activity of the wild type AK was about 80%.

AK [3] = assay: AK enzyme activity and inhibition by lysine/threonine in cell-free extracts of AK-deficient Escherichia coli Gif106M1 transformants; assay type: biochemical, Corynebacterium glutamicum; conditions: for inhibition by lysine alone as compared with the wild type / Specific activity: E. coli Gif106M1 cell-free extracts; for Specific activity: Table 4; for 5 mM Lys + Thr (degree of desensitization of inhibition, activity-holding ratio): lysine 5 mM+threonine 5 mM; for 5 mM Lys + Thr (degree of desensitization of inhibition, activity-holding ratio) / 5 mM Lys (degree of desensitization of inhibition, activity-holding ratio) / 5 mM Thr (degree of desensitization of inhibition, activity-holding ratio): activity without addition = 100%, E. coli Gif106M1 extracts; for 5 mM Lys (degree of desensitization of inhibition, activity-holding ratio): lysine 5 mM; for 5 mM Thr (degree of desensitization of inhibition, activity-holding ratio): threonine 5 mM
From the text: Bacteriol. 112, 84-92 (1972), Theze, J. et al., J. […] It is known that most of genes of bacteria belonging to the genus Corynebacterium are expressed in Escherichia coli. In addition, the AK gene was ligated at a position downstream from lac promoter on pHSG399. Thus it was postulated that the gene could be expressed in Escherichia coli. […] Thus it was confirmed that AK from the bacteria belonging to the genus Corynebacterium was expressed and operated in cells of Escherichia coli. Subsequently, cell-free extracts were prepared from bacterial cells, and the enzyme activity of AK was measured. Upon measurement of the enzyme activity of AK, various concentrations of lysine and threonine were added to enzyme reaction solutions to investigate the degree of inhibition (FIG. 2). […] (Ki value: 0.4 mM→5.0 mM). […] Cell-free extracts were prepared, and enzymes were analyzed.

Molecule	2 mM Lys + Thr (desensitization degree of inhibition) (aspartokinase) [%]	5 mM Lys (desensitization degree of inhibition) (aspartokinase) [%]	Specific activity (aspartokinase) [mU/mg protein]	5 mM Thr (desensitization degree of inhibition) (aspartokinase) [%]	Lys--HCl [1] [g/L]	thermal stability compared with the wild type (AK [2])	inhibition by lysine alone as compared with the wild type (AK [3])	Specific activity (AK [3]) [mU/mg protein]	5 mM Lys + Thr (degree of desensitization of inhibition, activity-holding ratio) (AK [3]) [%]	5 mM Lys (degree of desensitization of inhibition, activity-holding ratio) (AK [3]) [%]	5 mM Thr (degree of desensitization of inhibition, activity-holding ratio) (AK [3]) [%]
B1	32.2	16.1	425.6	104.8	25.12	higher stability than that of the wild type	enhanced	14.4	19.4	14.4	103.6
B2	32.4	14.6	447.7	105.0	25.14	higher stability than that of the wild type	enhanced	18.7	18.2	12.1	103.0

— patent publication US5688671A, “Mutant aspartokinase gene” (Ajinomoto Co., Inc., priority 1993, dated 1997)
